According to patent US11391726B2, “MoT cells as a therapeutic screening tool for regulatory t-cell activity” (ARIZONA BOARD OF REGENTS ON BEHALF OF ARIZONA STATE …, priority 2018, dated 2022):

Key:
MoT cells = test: CFSE suppression assay: Mabs pre-incubated with MoT cells, then co-cultured with CD3/28-stimulated CD4+ PBMC; type: cell-based, human; conditions: Mab pre-incubated with MoT cells 30 minutes, CD4+ PBMC:MoT ratio 1:1/2, CFSE flow cytometry (FIGS. 5D, 5F, 5H)
Method: (§1) Suppression assays. After IRB approval at Arizona State University (protocol #0601000548), peripheral blood was collected from healthy donors. After Ficoll-Paque Plus gradient separation of the buffy coat, CD4+ cells were purified using EasySep Human CD4^+ T Cell Isolation Kit (Catalog #17952 from Stemcell Technologies). Cells were allowed to rest overnight in cIMDM at 37° C. prior to labeling with CFSE (Carboxyfluorescein succinimidyl ester, from Cayman Chemica cat #10009853) dye to track cell divisions. The following day, CD4^+ T cells were counted, stained with CFSE, washed in PBS and then plated in IMDM with 10% FBS at 3×10^5 cells per well in a 48-well plate coated with OKT3 antibody at 5.0 ug/mL for 2 hours at 37° C. then washed twice in PBS before adding soluble co-stimulatory anti-CD28 (eBioscience clone CD28.6) at 5.0 ug/mL final concentration.
In some studies MoT and Jurkat cells were labeled with Cell Trace FarRed dye (Thermofisher) to gate MoT and Jurkat cells away from CD4^+ PBMC in flow cytometry analysis. Two-fold serial dilutions of MoT and Jurkat cells were added to CD4^+ PBMC, starting at 1.5×10^5 MoT and Jurkat cells (1:1/2 ratio CD4^+ T cells:tumor cells). Final volume per well was 1 mL. Cells were incubated for 5 days. […]

CD4+ PBMC = test: CFSE proliferation assay: Mabs co-incubated with CD3/28-stimulated CD4+ PBMC without MoT cells; type: cell-based, human; conditions: no MoT cells (FIGS. 5C, 5E, 5G)
Method: as §1
(FIG. 5A) Unstimulated PBMC. (FIG. 5B) CD3/28-stimulated CD4^+ PBMC cell division without MoT cells. (FIG. 5C) Anti-GITR, (FIG. 5E) Anti-CCR4 mogamulizumab, and (FIG. 5G) anti-PDL-1 (atezolizumab) co-incubated with PBMCs. (FIG. 5D) Anti-GITR, (FIG. 5F) anti-CCR4 (mogamulizumab), and (FIG. 5H) anti-PDL-1 (atezolizumab) co-incubated with PBMCs and MoT cells (1:½ ratio).

B1: mogamulizumab (antibody, chains of the INN, looked up, V domains shown)
VH: EVQLVESGGDLVQPGRSLRLSCAASGFIFSNYGMSWVRQAPGKGLEWVATISSASTYSYYPDSVKGRFTISRDNAKNSLYLQMNSLRVEDTALYYCGRHSDGNFAFGYWGQGTLVTVSS
VL: DVLMTQSPLSLPVTPGEPASISCRSSRNIVHINGDTYLEWYLQKPGQSPQLLIYKVSNRFSGVPDRFSGSGSGTDFTLKISRVEAEDVGVYYCFQGSLLPWTFGQGTKVEIK
- reversal of MoT cell-mediated suppression of CD4+ PBMC proliferation (MoT cells): None of the checkpoint inhibitor Mabs including anti-GITR reversed MoT cell-mediated suppression
- reversal of MoT cell-mediated suppression of CD4+ PBMC proliferation (MoT cells; listed as ant-CCR4): did not attenuate MoT Treg suppressive activity
- suppression or inhibition of CD4+ PBMC proliferation by the Mab alone (CD4+ PBMC): do not suppress or inhibit
